According to paper PMC11320570:

Columns and labels:
Assay in all cases: ELISA
3H5 mouse antibody = molecular target: 3H5 mouse antibody
[1] = molecular target: 513 engineered and humanized antibody
2H12 mouse antibody = molecular target: 2H12 mouse antibody

Substance | Kd (3H5 mouse antibody) [nM] | Kd [1] [nM] | Kd (2H12 mouse antibody) [nM]
DENV-2 EDIII wild-type Fc-fusion antigen S298N; S300T | 0.82 | 0.075 | 0.71
DENV-2 EDIII wild-type Fc-fusion antigen S298N; S300T; H317N | 0.82 | 0.081 | 
DENV-2 EDIII wild-type Fc-fusion antigen S298N; S300T; V309N; E311T; H317N | 0.78 | > 0.265 | 
